In PMC12884772, “Macrophagic Sclerostin Loop2‐ApoER2 Interaction Required by Sclerostin for Cardiovascular Protective Action” (Advanced Science, 2025):

Biological target: T1, ApoER2 (Mus musculus, UniProt Q924X6)
T1 construct: FLAG; expressed in transfected cells; host or cells: RAW264.7
T1 sequence (Q924X6 29-996): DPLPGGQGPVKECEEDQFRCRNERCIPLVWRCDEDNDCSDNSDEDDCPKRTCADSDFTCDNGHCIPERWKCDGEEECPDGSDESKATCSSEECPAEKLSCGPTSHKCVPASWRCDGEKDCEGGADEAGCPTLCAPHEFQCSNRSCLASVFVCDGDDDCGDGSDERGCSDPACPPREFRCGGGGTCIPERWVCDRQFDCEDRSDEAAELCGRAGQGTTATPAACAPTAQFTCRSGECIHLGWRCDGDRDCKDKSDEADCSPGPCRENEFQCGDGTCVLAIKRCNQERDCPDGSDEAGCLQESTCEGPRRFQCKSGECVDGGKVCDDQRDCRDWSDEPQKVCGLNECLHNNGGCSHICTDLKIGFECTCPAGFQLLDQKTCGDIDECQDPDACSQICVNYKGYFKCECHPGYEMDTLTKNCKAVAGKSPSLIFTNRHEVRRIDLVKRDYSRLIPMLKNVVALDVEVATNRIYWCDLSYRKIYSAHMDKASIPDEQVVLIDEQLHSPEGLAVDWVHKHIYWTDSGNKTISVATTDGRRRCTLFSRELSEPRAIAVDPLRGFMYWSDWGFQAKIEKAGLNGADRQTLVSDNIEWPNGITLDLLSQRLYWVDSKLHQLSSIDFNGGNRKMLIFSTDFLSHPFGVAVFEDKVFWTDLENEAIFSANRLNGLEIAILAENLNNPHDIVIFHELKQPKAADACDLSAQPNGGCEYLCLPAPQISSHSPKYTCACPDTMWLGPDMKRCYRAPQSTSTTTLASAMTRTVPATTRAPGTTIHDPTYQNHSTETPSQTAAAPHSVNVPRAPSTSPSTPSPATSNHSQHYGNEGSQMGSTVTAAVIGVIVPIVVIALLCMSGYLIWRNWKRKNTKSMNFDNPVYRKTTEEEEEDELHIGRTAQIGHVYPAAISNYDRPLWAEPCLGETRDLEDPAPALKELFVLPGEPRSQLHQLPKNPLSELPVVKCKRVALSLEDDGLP
Experiment: Confocal microscopy of cell surface binding of sclerostin to ApoER2
Assay type: cell-based
Conditions: GFP‐ApoER2 overexpressed RAW 264.7, sclerostin 1 µM for 12 h; Figure 6C
Experimental: The interaction of full‐length (FL)/truncated ApoER2 with full‐length (FL) /truncated sclerostin in macrophages (RAW264.7) were determined by pull‐down assay and Co‐IP assay. The binding affinity of ApoER2 to FL sclerostin and sclerostin loop2 were determined by biolayer interferometry (BLI) analysis. Moreover, the binding of sclerostin to ApoER2 on macrophages (RAW264.7) was examined by confocal microscopy.
GFP‐ApoER2 overexpressed RAW 264.7 cells and GFP‐vector overexpressed RAW 264.7 cells were plated in laser confocal dishes (80 000 cells per well) 12 h before the experiment. The recombinant sclerostin was added to make its final concentration 1 µM for 12 h. Cells were washed three times with PBS and then fixed with 4% paraformaldehyde (PFA) in PBS for 15 min, washed three times, blocked in 10% goat serum for 1 h at room temperature and incubated with anti‐sclerostin primary antibody (Thermo, PA5‐113315, 1:100) overnight at 4 °C. Thereafter, cells were washed with PBS three times, then incubated with goat anti‐rabbit IgG H&L (Alexa Fluor 594, 1:200) for 2 h at 37 °C. Hoechst was used to stain the cell nuclei. The fluorescent images were obtained by a confocal microscope (Leica, STELLARIS STED) equipped with a 405 nm laser, a 488 nm laser, and a 594 nm laser.^[ [67] ^]

Cell surface binding of sclerostin to ApoER2: observed
Substance: sclerostin: recombinant human/mouse full‐length sclerostin protein
